# Data published in article PMC2863070.
# B1: clone 9.30 (peptide)
# chain 1: CAFGRGAQKLVF
# chain 2: CATRIGWGTDTQYF
# B2: clone 9.66 (peptide)
# chain 1: CAFGRGAQKLVF
# chain 2: CATRIGWGTDTQYF
# Target: HSV-2 virion protein 22 (VP22), encoded by gene UL49 peptide on HLA-B*07:02 (human)
# Experiment: 51Cr release
# Settings: chains alpha TCRAV38-2 CDR3:beta TCRBV5-1 CDR3
row,Binder,EC50 of peptide [nM]
1,B1,0.11
2,B2,0.1
